Values joined by “and” are separate entries in the source; they are usually repeats but may differ in a detail not shown here. Equal entries are not always repeated. Where no end group is shown, it is not given here.
T1: MED25 ACID (residues Leu389-Asn543), recombinant (human, UniProt Q71SY5 389-543)
T1 sequence: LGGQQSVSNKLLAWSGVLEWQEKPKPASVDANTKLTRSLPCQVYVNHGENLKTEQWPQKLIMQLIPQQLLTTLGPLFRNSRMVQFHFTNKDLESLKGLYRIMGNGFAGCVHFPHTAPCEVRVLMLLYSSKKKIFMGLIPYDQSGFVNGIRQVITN

B1: GST-ATF6αTAD (residues 1-150) (domain or fragment)
chain: MGEPAGVAGTMESPFSPGLFHRLDEDWDSALFAELGYFTDTDELQLEAANETYENNFDNLDFDLDLMPWESDIWDINNQICTVKDIKAEPQPLSPASSSYSVSSPRSVDSYSSTQHVPEELDLSSSSQMSPLSLYGENSNSLSSAEPLKE

Legend:
[1] = molecular target: T1, MED25 ACID (residues Leu389-Asn543), …; experiment: NMR titration
[2] = molecular target: T1, MED25 ACID (residues Leu389-Asn543), …; experiment: pull-down

Row | Binder | Kd [1] [µM] | apparent Kd, second site of lower affinity (H1 face) [1] | binding result [2]
1 | Ac-SDSTMTNYMNQLSELLGFDLNP [N-acetylated NS1 α3 peptide (RSV NS1 residues Ser118-Pro139)] | 17 ± 8 | 200 µM and 1000 µM | –
2 | B1 | – | – | binds
